Results reported in PMC9467613 (mAbs, 2022).

Target: B7-H4 purified monomeric recombinant human protein (Homo sapiens, UniProt Q7Z7D3)
Assay: SPR

Chain of B7-H4 purified monomeric recombinant human protein (Q7Z7D3 25-259): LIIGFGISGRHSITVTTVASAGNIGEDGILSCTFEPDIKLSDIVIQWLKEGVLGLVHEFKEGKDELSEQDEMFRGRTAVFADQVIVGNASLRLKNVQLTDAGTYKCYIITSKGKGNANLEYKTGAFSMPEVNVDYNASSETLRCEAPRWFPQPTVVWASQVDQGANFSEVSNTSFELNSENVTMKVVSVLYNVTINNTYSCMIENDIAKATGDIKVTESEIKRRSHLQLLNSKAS

Row | Binder | Kd [pM] | koff [s⁻¹] | kon [M⁻¹ s⁻¹]
1 | A01 (scFv, V domains shown) VH: EVQLVESGGGVVQPGRSLRLSCAASGFTFSNKAMNWVRQAPGKGLEWVSAISGSGATTYYADSVKGRFTISRDNSKNTLYLQMNSLRAEDTAVYYCARKRWYGMDVWGQGTTVTVSS VL: SYELTQPPSVSVAPGKTARITCGGNNIGSKSVHWYQQKPGQAPVLVVYDDSDRPSGIPERFSGSNSGNTATLTISRVEAGDEADYYCQVWDRGMIFGTGTKLTVL | 224 | 3.7e-05 | 170000
2 | A08 (scFv, V domains shown) VH: EVQLVESGGGVVQPGRSLRLSCAASGFTFGDRAMNWVRQAPGKGLEWVSAISSSGTTSYYADSVKGRFTISRDNSKNTLYLQMNSLRAEDTAVYYCARKRWYGMDVWGQGTTVTVSS VL: SYELTQPPSVSVAPGKTARITCGGNNIGSKSVHWYQQKPGQAPVLVVYDDSDRPSGIPERFSGSNSGNTATLTISRVEAGDEADYYCQVWDRGMIFGTGTKLTVL | 43 | 1.3e-05 | 310000
3 | A11 (scFv, V domains shown) VH: EVQLVESGGGVVQPGRSLRLSCAASGFTFSSRSMNWVRQAPGKGLEWVSAISGSGSTVYYADSVKGRFTISRDNSKNTLYLQMNSLRAEDTAVYYCARKRWYGMDVWGQGTTVTVSS VL: SYELTQPPSVSVAPGKTARITCGGNNIGSKSVHWYQQKPGQAPVLVVYDDSDRPSGIPERFSGSNSGNTATLTISRVEAGDEADYYCQVWDRGMIFGTGTKLTVL | 60 | 1.1e-05 | 190000
4 | A07 (scFv, V domains shown) VH: EVQLVESGGGVVQPGRSLRLSCAASGFTFSSRSMNWVRQAPGKGLEWVSAISGSGSTVYYADSVKGRFTISRDNSKNTLYLQMNSLRAEDTAVYYCARKRWYGMDVWGQGTTVTVSS VL: SYELTQPPSVSVAPGKTARITCGGNNIGSKSVHWYQQKPGQAPVLVVYDDSDRPSGIPERFSGSNSGNTATLTISRVEAGDEADYYCQVWDSRTYVFGTGTKLTVL | 277 | 4.7e-05 | 170000
5 | A04 (scFv, V domains shown) VH: EVQLVESGGGVVQPGRSLRLSCAASGFTFSSRSMNWVRQAPGKGLEWVSAISGSGDTTYYADSVKGRFTISRDNSKNTLYLQMNSLRAEDTAVYYCARKRWYGMDVWGQGTTVTVSS VL: SYELTQPPSVSVAPGKTARITCGGNNIGSKSVHWYQQKPGQAPVLVVYDDSDRPSGIPERFSGSNSGNTATLTISRVEAGDEADYYCQVWDRGMIFGTGTKLTVL | 69 | 2.1e-05 | 310000
6 | A09 (scFv, V domains shown) VH: EVQLVESGGGVVQPGRSLRLSCAASGFTFSSRSMNWVRQAPGKGLEWVSAISGSGLTSYYADSVKGRFTISRDNSKNTLYLQMNSLRAEDTAVYYCARKRWYGMDVWGQGTTVTVSS VL: SYELTQPPSVSVAPGKTARITCGGNNIGSKSVHWYQQKPGQAPVLVVYDDSDRPSGIPERFSGSNSGNTATLTISRVEAGDEADYYCQVWDRGMIFGTGTKLTVL | 74 | 1.1e-05 | 160000
7 | A10 (scFv, V domains shown) VH: EVQLVESGGGVVQPGRSLRLSCAASGFTFSSRSMNWVRQAPGKGLEWVSAISGTGYTTYYADSVKGRFTISRDNSKNTLYLQMNSLRAEDTAVYYCARKRWYGMDVWGQGTTVTVSS VL: SYELTQPPSVSVAPGKTARITCGGNNIGSKSVHWYQQKPGQAPVLVVYDDSDRPSGIPERFSGSNSGNTATLTISRVEAGDEADYYCQVWDRGMIFGTGTKLTVL | 103 | 1.4e-05 | 140000
8 | B11 (scFv, V domains shown) VH: EVQLVESGGGVVQPGRSLRLSCAASGFTFTSRAMNWVRQAPGKGLEWVSAISGSGATAYYADSVKGRFTISRDNSKNTLYLQMNSLRAEDTAVYYCARKRWYGMDVWGQGTTVTVSS VL: SYELTQPPSVSVAPGKTARITCGGNNIGSKSVHWYQQKPGQAPVLVVYDDSDRPSGIPERFSGSNSGNTATLTISRVEAGDEADYYCQVWDRGMIFGTGTKLTVL | 68 | 1.2e-05 | 180000
9 | B10 (scFv, V domains shown) VH: EVQLVESGGGVVQPGRSLRLSCAASGFTFSTRAMNWVRQAPGKGLEWVSAISGTGDTTYYADSVKGRFTISRDNSKNTLYLQMNSLRAEDTAVYYCARKRWYGMDVWGQGTTVTVSS VL: SYELTQPPSVSVAPGKTARITCGGNNIGSKSVHWYQQKPGQAPVLVVYDDSDRPSGIPERFSGSNSGNTATLTISRVEAGDEADYYCQVWGRYQMIFGTGTKLTVL | 116 | 2.9e-05 | 260000
10 | B02 (scFv, V domains shown) VH: EVQLVESGGGVVQPGRSLRLSCAASGFTFSSRSMNWVRQAPGKGLEWVSAISGSGSTVYYADSVKGRFTISRDNSKNTLYLQMNSLRAEDTAVYYCARKRWYGMDVWGQGTTVTVSS VL: SYELTQPPSVSVAPGKTARITCGGNNIGVKSVHWYQQKPGQAPVLVVYDDSDRSPGIPERFSGSNSGNTATLTISRVEAGDEADYYCQVWDSRTYVFGTGTKLTVL | 59 | 1.1e-05 | 180000
11 | B09 (scFv, V domains shown) VH: EVQLVESGGGVVQPGRSLRLSCAASGFTYSSRAMNWVRQAPGKGLEWVSAISSSGTTTYYADSVKGRFTISRDNSKNTLYLQMNSLRAEDTAVYYCARKRWYGMDVWGQGTTVTVSS VL: SYELTQPPSVSVAPGKTARITCGGNNIGSKSVHWYQQKPGQAPVLVVYDDSDRPSGIPERFSGSNSGNTATLTISRVEAGDEADYYCQVWDRGMIFGTGTKLTVL | 118 | 2.5e-05 | 210000

Continued by falling Kd, values first:

Row | Kd [pM] | koff [s⁻¹] | kon [M⁻¹ s⁻¹] | Binder
12 | 172 | 2.7e-05 | 160000 | B04 (scFv, V domains shown) VH: EVQLVESGGGVVQPGRSLRLSCAASGFSFSSRAMNWVRQAPGKGLEWVSAVSGSGSGTYYADSVKGRFTISRDNSKNTLYLQMNSLRAEDTAVYYCARKRWYGMDVWGQGTTVTVSS VL: SYELTQPPSVSVAPGKTARITCGGNNIGLKSVHWYQQKPGQAPVLVVYDDSDRPSGIPERFSGSNSGNTATLTISRVEAGDEADYYCQVWDRGMIFGTGTKLTVL
13 | 139 | 3.2e-05 | 230000 | A12 (scFv, V domains shown) VH: EVQLVESGGGVVQPGRSLRLSCAASGFTFDNRAMNWVRQAPGKGLEWVSAISSSGSTMYYADSVKGRFTISRDNSKNTLYLQMNSLRAEDTAVYYCARKRWYGMDVWGQGTTVTVSS VL: SYELTQPPSVSVAPGKTARITCGGNNIGSKSVHWYQQKPGQAPVLVVYDDSDRPSGIPERFSGSNSGNTATLTISRVEAGDEADYYCQVWDSRTYVFGTGTKLTVL
14 | 117 | 2.2e-05 | 190000 | A05 (scFv, V domains shown) VH: EVQLVESGGGVVQPGRSLRLSCAASGFTYSSRAMNWVRQAPGKGLEWVSAISGSGSNAYYADSVKGRFTISRDNSKNTLYLQMNSLRAEDTAVYYCARKRWYGMDVWGQGTTVTVSS VL: SYELTQPPSVSVAPGKTARITCGGNNIGSKSVHWYQQKPGQAPVLVVYDDSDRPSGIPERFSGSNSGNTATLTISRVEAGDEADYYCQVWDRGMIFGTGTKLTVL
15 | 117 | 1.8e-05 | 150000 | B08 (scFv, V domains shown) VH: EVQLVESGGGVVQPGRSLRLSCAASGFTFSDRAMNWVRQAPGKGLEWVSAISASGASRYYADSVKGRFTISRDNSKNTLYLQMNSLRAEDTAVYYCARKRWYGMDVWGQGTTVTVSS VL: SYELTQPPSVSVAPGKTARITCGGNNIGSKSVHWYQQKPGQAPVLVVYDDSDRPSGIPERFSGSNSGNTATLTISRVEAGDEADYYCQVWDRGMIFGTGTKLTVL
16 | 97 | 1.7e-05 | 170000 | B06 (scFv, V domains shown) VH: EVQLVESGGGVVQPGRSLRLSCAASGFTFSNKAMNWVRQAPGKGLEWVSAISGSGATTYYADSVKGRFTISRDNSKNTLYLQMNSLRAEDTAVYYCARKRWYGMDVWGQGTTVTVSS VL: SYELTQPPSVSVAPGKTARITCGGNNIGVKAVHWYQQKPGQAPVLVVYDDSDRPSGIPERFSGSNSGNTATLTISRVEAGDEADYYCQVWDRGMIFGTGTKLTVL
17 | 84 | 2.8e-05 | 340000 | B12 (scFv, V domains shown) VH: EVQLVESGGGVVQPGRSLRLSCAASGFTFSDRAMNWVRQAPGKGLEWVSAISGTGASTYYADSVKGRFTISRDNSKNTLYLQMNSLRAEDTAVYYCARKRWYGMDVWGQGTTVTVSS VL: SYELTQPPSVSVAPGKTARITCGGNNIGSKSVHWYQQKPGQAPVLVVYDDSDRPSGIPERFSGSNSGNTATLTISRVEAGDEADYYCQVWDRGMIFGTGTKLTVL
18 | 70 | 2.1e-05 | 300000 | B03 (scFv, V domains shown) VH: EVQLVESGGGVVQPGRSLRLSCAASGFTFGDRAMNWVRQAPGKGLEWVSAISGSGSGTYYADSVKGRFTISRDNSKNTLYLQMNSLRAEDTAVYYCARKRWYGMDVWGQGTTVTVSS VL: SYELTQPPSVSVAPGKTARITCGGNNIGMKSVHWYQQKPGQAPVLVVYDDSDRPSGIPERFSGSNSGNTATLTISRVEAGDEADYYCQVWDRGMIFGTGTKLTVL
19 | 54 | 1.8e-05 | 330000 | B07 (scFv, V domains shown) VH: EVQLVESGGGVVQPGRSLRLSCAASGFTFGDRAMNWVRQAPGKGLEWVSAISGSGATTYYADSVKGRFTISRDNSKNTLYLQMNSLRAEDTAVYYCARKRWYGMDVWGQGTTVTVSS VL: SYELTQPPSVSVAPGKTARITCGGNNIGSKSVHWYQQKPGQAPVLVVYDDSDRPSGIPERFSGSNSGNTATLTISRVEAGDEADYYCQVWDRGMIFGTGTKLTVL
20 | 39 | 1.1e-05 | 280000 | A02 (scFv, V domains shown) VH: EVQLVESGGGVVQPGRSLRLSCAASGFTFTSRAMNWVRQAPGKGLEWVSAISYEGRTQYYADSVKGRFTISRDNSKNTLYLQMNSLRAEDTAVYYCARKRWYGMDVWGQGTTVTVSS VL: SYELTQPPSVSVAPGKTARITCGGNNIGSKSVHWYQQKPGQAPVLVVYDDSDRPSGIPERFSGSNSGNTATLTISRVEAGDEADYYCQVWDRGMIFGTGTKLTVL
